Here are results for 5 molecules from paper PMC10082787, “The IgG4 hinge with CD28 transmembrane domain improves VHH-based CAR T cells targeting a membrane-distal epitope of GPC1 in pancreatic cancer” (Nature Communications, 2023).

First the molecules themselves.
T1: GPC1 peptide 53 (Homo sapiens, UniProt P35052)
T1 construct: peptide no; 53 of 53 overlapping GPC1 peptides, 18 amino acids long, 9 overlapped with the adjacent peptide; source: synthetic peptide (Genscript)
T1 chain: DGCLDDLCSRKVSRKSSS

T2: GPC1 peptide 14 (Homo sapiens, UniProt P35052)
T2 construct: peptide no; 14 of 53 overlapping GPC1 peptides, 18 amino acids long, 9 overlapped with the adjacent peptide; source: synthetic peptide (Genscript)
T2 chain: FRDLYSELRLYYRGANLH

T3: GPC1 peptide 15 (Homo sapiens, UniProt P35052)
T3 construct: peptide no; 15 of 53 overlapping GPC1 peptides, 18 amino acids long, 9 overlapped with the adjacent peptide; source: synthetic peptide (Genscript)
T3 chain: LYYRGANLHLEETLAEFW

B1: HM2 mouse monoclonal antibody (antibody, V domains shown)
VH: EVQLQQSGAELVRPGASVKLSCTASGFNIKDDYMHWVKQRPEQGLEWIGWIDPENGDTEYASKFQGKATITADTSSNTAYLQLSSLTSEDTAVYYCTRSSVGYWGQGTTLTVSS
VL: DVVMTQTPLSLPVSLGDQASISCRSSQSLVHSNGNTYLHWYLQKPGQSPKLLIYKVSNRFSGVPDRFSGSGSGTYFTLKISRVEAEDLGVYFCSQRTHVPYTFGGGTKLEIK
notes: heavy chain of mouse mAb HM2; light chain of mouse mAb HM2; Raised by immunising mice with the C-lobe region of GPC1; also called HM2 mAb; HM2 clone; source: mouse hybridoma; in supernatant and purified
B2: GPC1 protein (negative stain EM) (natural protein)
chain: DPASKSRSCGEVRQIYGAKGFSLSDVPQAEISGEHLRICPQGYTCCTSEMEENLANRSHAELETALRDSSRVLQAMLATQLRSFDDHFQHLLNDSERTLQATFPGAFGELYTQNARAFRDLYSELRLYYRGANLHLEETLAEFWARLLERLFKQLHPQLLLPDDYLDCLGKQAEALRPFGEAPRELRLRATRAFVAARSFVQGLGVASDVVRKVAQVPLGPECSRAVMKLVYCAHCLGVPGARPCPDYCRNVLKGCLANQADLDAEWRNLLDSMVLITDKFWGTSGVESVIGSVHTWLAEAINALQDNRDTLTAKVIQGCGNPKVNPQGPGPEEKRRRGKLAPRERPPSGTLEKLVSEAKAQLRDVQDFWISLPGTLCSEKMALSTASDDRCWNGMARGRYLPEVMGDGLANQINNPEVEVDITKPDMTIRQQIMQLKIMTNRLRSAYNGNDVDFQDASDDGSGSGSGDGCLDDLCSRKVSRKSSSSRTPLTHALPGLSEQEGQKTS
notes: glypican-1 protein mixed 1:1 with HM2 Fab or D4-LR for negative stain EM; It may be the His-tagged or the hFc-fused protein of the other experiments
B3: recombinant human GPC1-hFc protein (Fc fusion)
chain: B2 chain
notes: glypican-1, human, fused to human Fc
B4: clone 1–12-IgG4H-CD28TM CAR (other)
VH: AVTLDESGGGLQTPGRALSLVCKASGFTFSRYAMYWVRQAPGKGLEFVAGIGNTGRYTGYGSAVKGRATISRDSGQSTVRLQLNNLRAEDTGNYYCAKSVSPYCCDAADIDAWGHGTEVIVST
VL: ALTQPASVSANPGETVKITCSGGSSGYAYGWYQQKSPGSAPVTLLYSNNNRPSDIPSRFSGSKSGSTATLTITGVQAEDEAVYFCGSVDSSSYAGIFGAGTTLTV
notes: scFv of the anti-GPC1 mAb clone 1–12; CD28 transmembrane domain (CD28TM); 4-1BB costimulatory domain; intracellular CD3ζ; also called clone 1–12 CAR; source: human T cells from PBMCs, lentivirally transduced; on cells
B5: D4 dromedary camel VHH nanobody (VHH)
VHH: QVQLVESGGGLVQPGGSLRLSCVASGYSYSIGYMAWFRQAPGKERAWVASRYTGDGGAVFDDAVKGRFTTSQESAGNTFDLQMDSLKPEDTAMYYCAAKGPGFGRWEYWGRGTQVTVSS
notes: D4 VHH; His tag used to load the Ni-NTA biosensor; FLAG used for detection in ELISA and flow cytometry; also called D4 antibody; D4 VHH

For test [1], the target named is T1, GPC1 peptide 53. As to the kind of experiment: ELISA; 53 overlapping 18-mer GPC1 peptides coated at 5 μg/ml in PBS overnight; 1 μg/ml of HM2 or D4 added. The note with it: both partners purified. On the technique in general: An ELISA detects its analyte on a solid surface through an enzyme-linked reagent.
Test [2] has as its target T4, His-tagged GPC1 protein (Homo sapiens, UniProt P35052).
T4 construct: glypican-1, human, His-tagged protein immobilised on the Ni-NTA biosensor; also called human GPC1
As to the kind of experiment: BLI; Octet RED96; His-tagged GPC1 immobilised on Ni-NTA biosensor, HM2 in solution; association 600 s, dissociation 1800 s. As to conditions: both partners purified. For orientation: Biolayer interferometry detects binding as a change in optical thickness at a sensor tip.

Test [3] has as its target T5, human glypican-2 (GPC2), recombinant protein (Homo sapiens (Human)., UniProt Q8N158).
T5 construct: glypican-2, human, recombinant protein coated on ELISA plates; source: bought: R&D Systems
In words: ELISA; plates coated with human GPC1 through GPC6; mouse hybridoma supernatant with 1 μg/ml of each mAb; detected with goat anti-mouse IgG-HRP. The note with it: one partner purified.

For test [4], the target named is T6, human glypican-3 (GPC3), recombinant protein (Homo sapiens, UniProt P51654).
T6 construct: glypican-3, human, recombinant protein coated on ELISA plates; source: bought: R&D Systems
T6 sequence (P51654 25-580): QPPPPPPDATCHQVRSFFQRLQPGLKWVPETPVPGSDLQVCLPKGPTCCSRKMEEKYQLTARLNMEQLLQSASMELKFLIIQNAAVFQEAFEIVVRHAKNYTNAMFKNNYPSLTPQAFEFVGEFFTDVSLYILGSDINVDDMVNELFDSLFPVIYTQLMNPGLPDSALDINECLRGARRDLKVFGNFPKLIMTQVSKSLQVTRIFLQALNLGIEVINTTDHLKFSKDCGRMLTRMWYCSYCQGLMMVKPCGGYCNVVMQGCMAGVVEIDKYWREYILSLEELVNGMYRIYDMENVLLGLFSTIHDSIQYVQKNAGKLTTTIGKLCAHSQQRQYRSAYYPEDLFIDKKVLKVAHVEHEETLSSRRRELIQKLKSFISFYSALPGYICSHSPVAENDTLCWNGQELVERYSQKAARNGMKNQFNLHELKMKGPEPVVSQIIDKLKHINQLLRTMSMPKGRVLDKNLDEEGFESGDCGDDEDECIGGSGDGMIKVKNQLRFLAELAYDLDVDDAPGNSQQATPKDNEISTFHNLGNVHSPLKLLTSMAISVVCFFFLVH
The description is as above. The note with it: one partner purified.

Test [5] concerns the target T7, human glypican-4 (GPC4), recombinant protein (Homo sapiens, UniProt O75487).
T7 construct: glypican-4, human, recombinant protein coated on ELISA plates; source: bought: R&D Systems
The test is described as above. The note with it: one partner purified.

Test [6] deals with T8, human glypican-5 (GPC5), recombinant protein (Homo sapiens, UniProt P78333).
T8 construct: glypican-5, human, recombinant protein coated on ELISA plates; source: bought: R&D Systems
T8 sequence (P78333 25-572): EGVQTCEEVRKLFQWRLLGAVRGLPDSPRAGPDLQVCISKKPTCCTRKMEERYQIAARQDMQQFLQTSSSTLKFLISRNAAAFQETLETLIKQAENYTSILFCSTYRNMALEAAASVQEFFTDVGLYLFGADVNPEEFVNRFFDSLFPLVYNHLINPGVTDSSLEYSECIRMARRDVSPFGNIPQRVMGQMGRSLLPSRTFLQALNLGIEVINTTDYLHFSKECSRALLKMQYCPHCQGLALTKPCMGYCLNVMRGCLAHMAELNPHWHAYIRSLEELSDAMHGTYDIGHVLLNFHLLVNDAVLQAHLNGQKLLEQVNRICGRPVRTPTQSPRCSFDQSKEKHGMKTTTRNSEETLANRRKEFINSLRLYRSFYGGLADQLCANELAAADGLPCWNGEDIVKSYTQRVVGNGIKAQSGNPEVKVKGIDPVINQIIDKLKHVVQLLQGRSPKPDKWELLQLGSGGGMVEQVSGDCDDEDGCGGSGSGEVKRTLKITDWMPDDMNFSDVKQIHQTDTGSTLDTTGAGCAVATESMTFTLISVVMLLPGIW
Described as above. The note with it: one partner purified.

Test [7] addresses T9, human glypican-6 (GPC6), recombinant protein (Homo sapiens (Human)., UniProt Q9Y625).
T9 construct: glypican-6, human, recombinant protein coated on ELISA plates; source: bought: R&D Systems
The description is as above. As to conditions: one partner purified.

Test [8] deals with D4-LR immunotoxin (Camelus dromedarius | Pseudomonas). As to the kind of experiment: negative stain EM. As to conditions: both partners purified.
Test [9] deals with T10, D4-CD8H-CD8TM CAR (Camelus dromedarius | ).
T10 construct: CD8 hinge (CD8H), 45 amino acids; CD8 transmembrane region (CD8TM); 4-1BB costimulatory domain; intracellular CD3ζ; also called D4 CAR; pMH305; source: human T cells from PBMCs, lentivirally transduced; on cells and in lysate
In words: flow cytometry on cells; CAR T cells stained with GPC1-hFc at 5 μg/ml and goat anti-human IgG-PE. The note with it: one partner purified. For orientation: A flow cytometer gives signals particle by particle.

For test [10], the target named is T11, D4-CD8H-CD28TM CAR (Camelus dromedarius | ).
T11 construct: CD8 hinge (CD8H), 45 amino acids; CD28 transmembrane domain (CD28TM); 4-1BB costimulatory domain; intracellular CD3ζ; also called pMH402; source: human T cells from PBMCs, lentivirally transduced; on cells and in lysate
The test is described as above. As to conditions: one partner purified.

In test [11] the target is T12, D4-IgG4H-CD8TM CAR (Camelus dromedarius | human | ).
T12 construct: CD8 transmembrane region (CD8TM); 4-1BB costimulatory domain; intracellular CD3ζ; Dimer by non-reducing western blot; also called pMH382; source: human T cells from PBMCs, lentivirally transduced; on cells and in lysate
The description is as above. As to conditions: one partner purified.

The target of test [12] is T13, D4-IgG4H-CD28TM CAR (Camelus dromedarius | human | ).
T13 construct: CD28 transmembrane domain (CD28TM); 4-1BB costimulatory domain; intracellular CD3ζ; Dimer by non-reducing western blot; also called D4-IgG4H only CAR; D4-IgG4H CAR; source: human T cells from PBMCs, lentivirally transduced; on cells and in lysate
The description is as above. As to conditions: one partner purified.

Test [13] addresses B3. The test is described as above. As to conditions: one partner purified.
Test [14] deals with B3. As to the kind of experiment: BLI; Octet RED96; His-tagged D4 loaded on Ni-NTA biosensor, serially diluted human GPC1-hFc in solution. The note with it: both partners purified.
Test [15] has as its target T2, GPC1 peptide 14. As to the kind of experiment: ELISA; 53 overlapping 18-mer GPC1 peptides coated at 5 μg/ml in PBS overnight; 1 μg/ml of HM2 or D4 added. The note with it: both partners purified.
Test [16] has as its target T3, GPC1 peptide 15. The description is as above. As to conditions: both partners purified.
Test [17] addresses T5, human glypican-2 (GPC2), recombinant …. As to the kind of experiment: ELISA; D4 nanobody at 1 μg/ml on human GPC1 through GPC6 and mouse GPC1 proteins; detected with anti-FLAG-HRP; the legend calls it monoclonal phage ELISA. As to conditions: both partners purified.
In test [18] the target is T6, human glypican-3 (GPC3), recombinant …. The description is as above. The note with it: both partners purified.
In test [19] the target is T7, human glypican-4 (GPC4), recombinant …. Described as above. The note with it: both partners purified.
Test [20] has as its target T8, human glypican-5 (GPC5), recombinant …. Described as above. As to conditions: both partners purified.
Test [21] has as its target T9, human glypican-6 (GPC6), recombinant …. Described as above. The note with it: both partners purified.
Test [22] has as its target T14, mouse glypican-1 (GPC1) protein (Mus musculus (Mouse)., UniProt Q9QZF2).
T14 construct: glypican-1, mouse, protein used in the ELISA of D4; also called mouse GPC1; murine GPC1
Described as above. As to conditions: both partners purified.

T7 sequence (O75487 19-529): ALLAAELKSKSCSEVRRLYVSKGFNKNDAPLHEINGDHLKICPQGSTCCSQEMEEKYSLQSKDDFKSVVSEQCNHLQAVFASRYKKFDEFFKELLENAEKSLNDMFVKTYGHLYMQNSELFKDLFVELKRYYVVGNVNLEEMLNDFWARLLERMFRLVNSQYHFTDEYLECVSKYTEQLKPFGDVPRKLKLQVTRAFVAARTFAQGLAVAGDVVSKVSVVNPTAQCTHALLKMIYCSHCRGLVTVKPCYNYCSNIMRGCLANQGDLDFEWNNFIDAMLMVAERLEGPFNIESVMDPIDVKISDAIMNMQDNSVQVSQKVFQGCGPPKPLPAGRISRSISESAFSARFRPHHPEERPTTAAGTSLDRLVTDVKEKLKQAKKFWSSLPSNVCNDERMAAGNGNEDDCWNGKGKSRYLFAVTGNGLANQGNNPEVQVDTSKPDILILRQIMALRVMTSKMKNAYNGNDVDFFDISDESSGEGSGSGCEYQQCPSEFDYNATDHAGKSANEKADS
T5 sequence (Q8N158 24-554): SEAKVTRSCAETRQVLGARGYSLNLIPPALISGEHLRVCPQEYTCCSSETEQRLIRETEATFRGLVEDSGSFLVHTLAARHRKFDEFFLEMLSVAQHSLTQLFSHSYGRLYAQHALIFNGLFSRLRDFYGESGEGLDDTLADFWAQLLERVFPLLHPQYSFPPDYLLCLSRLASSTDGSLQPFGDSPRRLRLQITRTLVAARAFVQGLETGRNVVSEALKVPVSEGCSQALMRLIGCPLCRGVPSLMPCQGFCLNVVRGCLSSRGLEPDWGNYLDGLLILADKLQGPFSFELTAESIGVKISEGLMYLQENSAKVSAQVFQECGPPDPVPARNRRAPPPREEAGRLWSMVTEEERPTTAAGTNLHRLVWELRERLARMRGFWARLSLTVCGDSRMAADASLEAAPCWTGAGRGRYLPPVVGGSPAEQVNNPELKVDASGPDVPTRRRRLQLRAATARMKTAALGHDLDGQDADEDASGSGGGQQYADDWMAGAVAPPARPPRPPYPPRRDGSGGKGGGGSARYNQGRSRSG
T9 sequence (Q9Y625 24-529): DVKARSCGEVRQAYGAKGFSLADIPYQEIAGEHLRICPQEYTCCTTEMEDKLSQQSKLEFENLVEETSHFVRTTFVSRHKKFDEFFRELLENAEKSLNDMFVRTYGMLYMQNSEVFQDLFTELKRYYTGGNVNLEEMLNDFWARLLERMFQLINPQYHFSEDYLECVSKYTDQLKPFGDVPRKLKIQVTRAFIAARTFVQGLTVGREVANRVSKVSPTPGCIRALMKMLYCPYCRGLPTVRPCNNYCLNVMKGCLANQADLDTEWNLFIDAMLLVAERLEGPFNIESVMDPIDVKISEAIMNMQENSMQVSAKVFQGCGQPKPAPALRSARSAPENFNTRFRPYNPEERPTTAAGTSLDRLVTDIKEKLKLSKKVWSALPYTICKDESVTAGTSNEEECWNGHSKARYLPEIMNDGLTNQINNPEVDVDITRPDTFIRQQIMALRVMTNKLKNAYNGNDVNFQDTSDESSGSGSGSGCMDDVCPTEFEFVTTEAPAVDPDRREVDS
T4 sequence (P35052 whole entry, looked up): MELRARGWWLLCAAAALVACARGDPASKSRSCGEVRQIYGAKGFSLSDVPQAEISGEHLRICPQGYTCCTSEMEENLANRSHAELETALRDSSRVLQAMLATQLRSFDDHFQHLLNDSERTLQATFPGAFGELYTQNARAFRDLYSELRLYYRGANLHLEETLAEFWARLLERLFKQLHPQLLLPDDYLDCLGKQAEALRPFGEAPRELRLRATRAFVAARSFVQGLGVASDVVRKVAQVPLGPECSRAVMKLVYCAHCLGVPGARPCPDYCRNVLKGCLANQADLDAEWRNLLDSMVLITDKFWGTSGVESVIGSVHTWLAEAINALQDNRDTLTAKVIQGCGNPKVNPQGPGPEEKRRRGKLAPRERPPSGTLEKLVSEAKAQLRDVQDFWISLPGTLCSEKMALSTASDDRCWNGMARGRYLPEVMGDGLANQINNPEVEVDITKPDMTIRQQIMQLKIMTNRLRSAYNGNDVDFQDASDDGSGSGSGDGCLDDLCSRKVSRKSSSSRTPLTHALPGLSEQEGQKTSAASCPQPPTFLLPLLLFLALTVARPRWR

In the case of B1, the binding result in test [1] is listed as “binds”; in test [3] it was “no binding (tested: 1 μg/ml)”; in [4], “no binding (tested: 1 μg/ml)”; in test [5], “no binding (tested: 1 μg/ml)”; in [6], “no binding (tested: 1 μg/ml)”; in test [7] it was “no binding (tested: 1 μg/ml)”. The affinity in test [2], expressed as Kd, was 0.4 nM.
With B2, the binding result in [8] is “binds”.
For B3, the binding result in test [9], in [10], in test [11] and in [12] was “binds” in each case.
With B4, the binding result in test [13] is reported as “binds”.
For the molecule B5, in test [14], the dissociation constant Kd is 0.7 nM. The binding result in test [15] is given as “binds”; in test [16], “binds”; in test [17], “no binding (tested: 1 μg/ml)”; in [18] it was “no binding (tested: 1 μg/ml)”; in [19] it was “no binding (tested: 1 μg/ml)”; in test [20] it was “no binding (tested: 1 μg/ml)”. For the same molecule, the values for the binding result in test [21] and in [22] were “no binding (tested: 1 μg/ml)” and “binds”, respectively.

A word on the Kd: it is the constant that tells how readily two partners part at equilibrium.
